B1: S. cerevisiae Abp1 (full length; SH3 domain 535-592 mutated) / Hua2 (parent complex)
chain 1: MALEPIDYTTHSREIDAEYLKIVRGSDPDTTWLIISPNAKKEYEPESTGSSFHDFLQLFDETKVQYGLARVSPPGSDVEKIIIIGWCPDSAPLKTRASFAANFAAVANNLFKGYHVQVTARDEDDLDENELLMKISNAAGARYSIQTSSKQQGKASTPPVKKSFTPSKSPAPVSKKEPVKTPSPAPAAKISSRVNDNNDDDDWNEPELKERDFDQAPLKPNQSSYKPIGKIDLQKVIAEEKAKEDPRLVQKPTAAGSKIDPSSDIANLKNESKLKRDSEFNSFLGTTKPPSMTESSLKNDDDKVIKGFRNEKSPAQLWAERKAKQNSGNAETKAEAPKPEVPEDEPEGEPDVKDLKSKFEGLAASEKEEEEMENKFAPPPKKSEPTIISPKPFSKPQEPVKAEEAEQPKTDYKKIGNPLPGMHIEADNEEEPEENDDDWDDDEDEAAQPPLPSRNVASGAPVQKEEPEQEEIAPSLPSRNSIPAPKQEEAPEQAPEEEIEEEAEEAAPQLPSRSSAAPPPPPRRATPEKKPKENPWATAEYDYDAAEDNELTFVENDKIINIEFVDDDWWLGELEKDGSKGLFPSNYVSLGN
chain 2: MQQTKFGKMYLDHDSVVEYSEDEIVEADRITLGYKKRLSMIENQMRHLLEDFSLDVQQIEPILADLQKYYDAFLQLLQKRNKSLQCKRSTHQPVPSPMNSQTSTNAKVNLSGKLMKFQLNSVQKFDEENILRILQNKIEFEHYFQIDKGKKQKVLLLAVYQCLNGPTRLHKVLNIEGIIHNNSIRTILGKQVSSSKWTVFLYDVKLVLLAHRQDVPNLETSKMIVRYGDLFPCALYFKDHTAY

Variants of: B1
Assay: DHFR protein-fragment complementation in yeast (Abp1-DHFR F[1,2] x partner-DHFR F[3]), deep mutational scanning, second methotrexate selection vs reference; S. cerevisiae, DHFR-PCA selection in liquid with methotrexate at 30 C, two 72 h selections (the score uses the second); reference = the pre-selection culture

Variant	screen value
chain 1 MALEPIDYTTHSREIDAEYLKIVRGSDPDTTWLIISPNAKKEYEPESTGSSFHDFLQLFDETKVQYGLARVSPPGSDVEKIIIIGWCPDSAPLKTRASFAANFAAVANNLFKGYHVQVTARDEDDLDENELLMKISNAAGARYSIQTSSKQQGKASTPPVKKSFTPSKSPAPVSKKEPVKTPSPAPAAKISSRVNDNNDDDDWNEPELKERDFDQAPLKPNQSSYKPIGKIDLQKVIAEEKAKEDPRLVQKPTAAGSKIDPSSDIANLKNESKLKRDSEFNSFLGTTKPPSMTESSLKNDDDKVIKGFRNEKSPAQLWAERKAKQNSGNAETKAEAPKPEVPEDEPEGEPDVKDLKSKFEGLAASEKEEEEMENKFAPPPKKSEPTIISPKPFSKPQEPVKAEEAEQPKTDYKKIGNPLPGMHIEADNEEEPEENDDDWDDDEDEAAQPPLPSRNVASGAPVQKEEPEQEEIAPSLPSRNSIPAPKQEEAPEQAPEEEIEEEAEEAAPQLPSRSSAAPPPPPRRATPEKKPKENPWATAEYDYDAAEDNELTFVENDKIINIDFVDDDWWLGELEKDGSKGLFPSNYVSLGN [chain 1 E563D]	0.0054 DMS score: mean over two replicates of log2(f_test/f_ref + 0.5)/ln 2, minus the synonymous-codon median (not a log2 …
chain 1 MALEPIDYTTHSREIDAEYLKIVRGSDPDTTWLIISPNAKKEYEPESTGSSFHDFLQLFDETKVQYGLARVSPPGSDVEKIIIIGWCPDSAPLKTRASFAANFAAVANNLFKGYHVQVTARDEDDLDENELLMKISNAAGARYSIQTSSKQQGKASTPPVKKSFTPSKSPAPVSKKEPVKTPSPAPAAKISSRVNDNNDDDDWNEPELKERDFDQAPLKPNQSSYKPIGKIDLQKVIAEEKAKEDPRLVQKPTAAGSKIDPSSDIANLKNESKLKRDSEFNSFLGTTKPPSMTESSLKNDDDKVIKGFRNEKSPAQLWAERKAKQNSGNAETKAEAPKPEVPEDEPEGEPDVKDLKSKFEGLAASEKEEEEMENKFAPPPKKSEPTIISPKPFSKPQEPVKAEEAEQPKTDYKKIGNPLPGMHIEADNEEEPEENDDDWDDDEDEAAQPPLPSRNVASGAPVQKEEPEQEEIAPSLPSRNSIPAPKQEEAPEQAPEEEIEEEAEEAAPQLPSRSSAAPPPPPRRATPEKKPKENPWATAEYDYDAAEDNELTFVENDKIINIEFVDDDWWLGELEKDGSTGLFPSNYVSLGN [chain 1 K580T]	0.165 DMS score: mean over two replicates of log2(f_test/f_ref + 0.5)/ln 2, minus the synonymous-codon median (not a log2 …
chain 1 MALEPIDYTTHSREIDAEYLKIVRGSDPDTTWLIISPNAKKEYEPESTGSSFHDFLQLFDETKVQYGLARVSPPGSDVEKIIIIGWCPDSAPLKTRASFAANFAAVANNLFKGYHVQVTARDEDDLDENELLMKISNAAGARYSIQTSSKQQGKASTPPVKKSFTPSKSPAPVSKKEPVKTPSPAPAAKISSRVNDNNDDDDWNEPELKERDFDQAPLKPNQSSYKPIGKIDLQKVIAEEKAKEDPRLVQKPTAAGSKIDPSSDIANLKNESKLKRDSEFNSFLGTTKPPSMTESSLKNDDDKVIKGFRNEKSPAQLWAERKAKQNSGNAETKAEAPKPEVPEDEPEGEPDVKDLKSKFEGLAASEKEEEEMENKFAPPPKKSEPTIISPKPFSKPQEPVKAEEAEQPKTDYKKIGNPLPGMHIEADNEEEPEENDDDWDDDEDEAAQPPLPSRNVASGAPVQKEEPEQEEIAPSLPSRNSIPAPKQEEAPEQAPEEEIEEEAEEAAPQLPSRSSAAPPPPPRRATPEKKPKENPWATAEYDYDAAEVNELTFVENDKIINIEFVDDDWWLGELEKDGSKGLFPSNYVSLGN [chain 1 D548V]	0.053 DMS score: mean over two replicates of log2(f_test/f_ref + 0.5)/ln 2, minus the synonymous-codon median (not a log2 …
chain 1 MALEPIDYTTHSREIDAEYLKIVRGSDPDTTWLIISPNAKKEYEPESTGSSFHDFLQLFDETKVQYGLARVSPPGSDVEKIIIIGWCPDSAPLKTRASFAANFAAVANNLFKGYHVQVTARDEDDLDENELLMKISNAAGARYSIQTSSKQQGKASTPPVKKSFTPSKSPAPVSKKEPVKTPSPAPAAKISSRVNDNNDDDDWNEPELKERDFDQAPLKPNQSSYKPIGKIDLQKVIAEEKAKEDPRLVQKPTAAGSKIDPSSDIANLKNESKLKRDSEFNSFLGTTKPPSMTESSLKNDDDKVIKGFRNEKSPAQLWAERKAKQNSGNAETKAEAPKPEVPEDEPEGEPDVKDLKSKFEGLAASEKEEEEMENKFAPPPKKSEPTIISPKPFSKPQEPVKAEEAEQPKTDYKKIGNPLPGMHIEADNEEEPEENDDDWDDDEDEAAQPPLPSRNVASGAPVQKEEPEQEEIAPSLPSRNSIPAPKQEEAPEQAPEEEIEEEAEEAAPQLPSRSSAAPPPPPRRATPEKKPKENPWATAEYDFDAAEDNELTFVENDKIINIEFVDDDWWLGELEKDGSKGLFPSNYVSLGN [chain 1 Y543F]	0.735 DMS score: mean over two replicates of log2(f_test/f_ref + 0.5)/ln 2, minus the synonymous-codon median (not a log2 …
chain 1 MALEPIDYTTHSREIDAEYLKIVRGSDPDTTWLIISPNAKKEYEPESTGSSFHDFLQLFDETKVQYGLARVSPPGSDVEKIIIIGWCPDSAPLKTRASFAANFAAVANNLFKGYHVQVTARDEDDLDENELLMKISNAAGARYSIQTSSKQQGKASTPPVKKSFTPSKSPAPVSKKEPVKTPSPAPAAKISSRVNDNNDDDDWNEPELKERDFDQAPLKPNQSSYKPIGKIDLQKVIAEEKAKEDPRLVQKPTAAGSKIDPSSDIANLKNESKLKRDSEFNSFLGTTKPPSMTESSLKNDDDKVIKGFRNEKSPAQLWAERKAKQNSGNAETKAEAPKPEVPEDEPEGEPDVKDLKSKFEGLAASEKEEEEMENKFAPPPKKSEPTIISPKPFSKPQEPVKAEEAEQPKTDYKKIGNPLPGMHIEADNEEEPEENDDDWDDDEDEAAQPPLPSRNVASGAPVQKEEPEQEEIAPSLPSRNSIPAPKQEEAPEQAPEEEIEEEAEEAAPQLPSRSSAAPPPPPRRATPEKKPKENPWATAEYDYDAAEDNELTFVENDKIINIEFVDDDWWLGELEKDGSKGLFPSNYVCLGN [chain 1 S589C]	0.299 DMS score: mean over two replicates of log2(f_test/f_ref + 0.5)/ln 2, minus the synonymous-codon median (not a log2 …
